# In patent US20020188037A1, “Method and system for providing bioactive agent release coating” (priority 1999, published 2002):
# Experiment: Bioactive Agent Release Assay, dextran-TRITC under polymer topcoat on discs (Example 4)
# Type: physicochemical
# Details: pEVA/pBMA topcoat coated at 48% relative humidity compared with 10% relative humidity; PBS, 37° C.; FIG. 2
# Description: Two solutions were prepared in order to provide a coating composition in the form of a two part system. The first solution was an aqueous solution containing the bioactive agent, dextran-TRITC, at a concentration of 15 mg/ml. […] The poly(n-butyl methacrylate) and poly(ethylene-co-vinylacetate) were purified by extraction with organic solvents to remove impurities, e.g., monomer residues. The polymers of the second solution were dissolved in tetrahydrofuran at a concentration of 10 mg/ml.
# Fifteen-millimeter diameter stainless steel discs with an overall thickness of two millimeters were fabricated with a nine-millimeter diameter flat pedestal. […] A surface treatment such as Parylene could be applied to the disc or the surface could be left untreated. The discs were weighed on a microbalance. The aqueous bioactive agent solution was applied to the pedestal surface of the discs with a pipette. The water evaporated from the discs and the discs were re-weighed on a microbalance to obtain the amount of the bioactive agent on the disc. The polymer coating solution containing poly(ethylene-co-vinylacetate) and poly(n-butyl methacrylate) was applied to the entire surface of the disc, covering the dextran. […]
# Except as otherwise provided herein, each coated disc was placed in an amber vial with 4 mls of PBS. […] The concentration of bioactive agent in each PBS sample was determined using UV spectroscopy. […]
substance,measurement,value
tetramethylrhodamine isothiocyanate-Dextran [dextran-TRITC],release rate of the bioactive agent from the composite coating,faster rate
